These results are taken from patent US20100129861.

The series concerns the target 43S complexes containing 40S subunits and eIFs 2/3/1/1A.

B1: DHX29 (purified native DHX29, DExH-box helicase) (protein)
chain: MGGKNKKHKAPAAAVVRAAVSASRAKSAEAGIAGEAQSKKPVSRPATAAAAAAGSREPRVKQGPKIYSFNSTNDSSGPANLDKSILKVVINNKLEQRIIGVINEHKKQNNDKGMISGRLTAKKLQDLYMALQAFSFKTKDIEDAMTNTLLYGGDLHSALDWLCLNLSDDALPEGFSQEFEEQQPKSRPKFQSPQIQATISPPLQPKTKTYEEDPKSKPKKEEKNMEVNMKEWILRYAEQQNEEEKNENSKSLEEEEKFDPNERYLHLAAKLLDAKEQAATFKLEKNKQGQKEAQEKIRKFQREMETLEDHPVFNPAMKISHQQNERKKPPVATEGESALNFNLFEKSAAATEEEKDKKKEPHDVRNFDYTARSWTGKSPKQFLIDWVRKNLPKSPNPSFEKVPVGRYWKCRVRVIKSEDDVLVVCPTILTEDGMQAQHLGATLALYRLVKGQSVHQLLPPTYRDVWLEWSDAEKKREELNKMETNKPRDLFIAKLLNKLKQQQQQQQQHSENKRENSEDPEESWENLVSDEDFSALSLESANVEDLEPVRNLFRKLQSTPKYQKLLKERQQLPVFKHRDSIVETLKRHRVVVVAGETGSGKSTQVPHFLLEDLLLNEWEASKCNIVCTQPRRISAVSLANRVCDELGCENGPGGRNSLCGYQIRMESRACESTRLLYCTTGVLLRKLQEDGLLSNVSHVIVDEVHERSVQSDFLLIILKEILQKRSDLHLILMSATVDSEKFSTYFTHCPILRISGRSYPVEVFHLEDIIEETGFVLEKDSEYCQKFLEEEEEVTINVTSKAGGIKKYQEYIPVQTGAHADLNPFYQKYSSRTQHAILYMNPHKINLDLILELLAYLDKSPQFRNIEGAVLIFLPGLAHIQQLYDLLSNDRRFYSERYKVIALHSILSTQDQAAAFTLPPPGVRKIVLATNIAETGITIPDVVFVIDTGRTKENKYHESSQMSSLVETFVSKASALQRQGRAGRVRDGFCFRMYTRERFEGFMDYSVPEILRVPLEELCLHIMKCNLGSPEDFLSKALDPPQLQVISNAMNLLRKIGACELNEPKLTPLGQHLAALPVNVKIGKMLIFGAIFGCLDPVATLAAVMTEKSPFTTPIGRKDEADLAKSALAMADSDHLTIYNAYLGWKKARQEGGYRSEITYCRRNFLNRTSLLTLEDVKQELIKLVKAAGFSSSTTSTSWEGNRASQTLSFQEIALLKAVLVAGLYDNVGKIIYTKSVDVTEKLACIVETAQGKAQVHPSSVNRDLQTHGWLLYQEKIRYARVYLRETTLITPFPVLLFGGDIEVQHRERLLSIDGWIYFQAPVKIAVIFKQLRVLIDSVLRKKLENPKMSLENDKILQIITELIKTENN
Take B1: the NTPase activity entry was “DHX29's NTPase activity was strongly stimulated by 43S complexes, whereas stimulation by single-stranded RNA was low”.
